Results as given in publication PMC10374065 (PLOS Pathogens, 2023).

B1: purified recombinant T7-tagged vIRF-1 (natural protein)
chain: MDPGQRPNPFGAPGAIPKKPCLSQGSPGTSGSGAPCDEPSRSESPGEGPSGTGGSAAAGDITRQAVVAAITEWSRTRQLRISTGASEGKASIKDWIVCQVNSGKFPGVEWEDEERTRFRIPVTPLADPCFEWRRDGELGVVYIRERGNMPVDASFKGTRGRRRMLAALRRTRGLQEIGKGISQDGHHFLVFRVRKPEEEQCVECGVVAGAVHDFNNMARLLQEGFFSPGQCLPGEIVTPVPSCTTAEGQEAVIDWGRLFIRMYYNGEQVHELLTTSQSGCRISSALRRDPAVHYCAVGSPGQVWLPNVPNLACEIAKRELCDTLDACAKGILLTSSCNGIFCVCYHNGPVHFIGNTVPPDSGPLLLPQGKPTRIFNPNTFLVGLANSPLPAPSHVTCPLVKLWLGKPVAVGKLEPHAPSPRDFAARCSNFSDACVVLEIMPKPLWDAMQ
notes: source: purified recombinant protein; not shown: T7, C-terminal, kept

What was measured:
Assay in all cases: pull-down
Details in all cases: both partners purified
GST-LC3B L22K = GST-LC3B L22K (human, UniProt Q9GZQ8 1-120, L22K)
GST-LC3B D19E = GST-LC3B D19E (human, UniProt Q9GZQ8 1-120, D19E)
GST-LC3B E41K = GST-LC3B E41K (human, UniProt Q9GZQ8 1-120, E41K)
GST-GABARAPL1 = molecular target: T1, GST-GABARAPL1 (human, UniProt Q9H0R8 1-117)
T1 construct: also called GABARAP-like 1; GL1
T1 sequence (Q9H0R8 whole entry): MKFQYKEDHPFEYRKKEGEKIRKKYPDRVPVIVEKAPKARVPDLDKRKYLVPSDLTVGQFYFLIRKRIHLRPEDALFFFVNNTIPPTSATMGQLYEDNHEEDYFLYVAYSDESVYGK

[1] = molecular target: B1
[2] = molecular target: T2, purified recombinant T7-tagged GABARAPL1 (human, UniProt Q9H0R8 1-117)
T2 construct: also called T7-GABARAPL1

B1
binding result (GST-LC3B L22K): binds | binding result (GST-LC3B D19E): binds | binding result (GST-LC3B E41K): binds | binding result (GST-GABARAPL1): binds

B2: GST-GABARAP (natural protein, human, UniProt O95166 1-117, looked up)
chain: MKFVYKEEHPFEKRRSEGEKIRKKYPDRVPVIVEKAPKARIGDLDKKKYLVPSDLTVGQFYFLIRKRIHLRAEDALFFFVNNVIPPTSATMGQLYQEHHEEDFFLYIAYSDESVYGL
notes: also called γ-amino-butyric acid receptor-associated protein
binding result [1]: binds

B3: GST-fused full-length (FL) vIRF-1 (natural protein)
chain: MDPGQRPNPFGAPGAIPKKPCLSQGSPGTSGSGAPCDEPSRSESPGEGPSGTGGSAAAGDITRQAVVAAITEWSRTRQLRISTGASEGKASIKDWIVCQVNSGKFPGVEWEDEERTRFRIPVTPLADPCFEWRRDGELGVVYIRERGNMPVDASFKGTRGRRRMLAALRRTRGLQEIGKGISQDGHHFLVFRVRKPEEEQCVECGVVAGAVHDFNNMARLLQEGFFSPGQCLPGEIVTPVPSCTTAEGQEAVIDWGRLFIRMYYNGEQVHELLTTSQSGCRISSALRRDPAVHYCAVGSPGQVWLPNVPNLACEIAKRELCDTLDACAKGILLTSSCNGIFCVCYHNGPVHFIGNTVPPDSGPLLLPQGKPTRIFNPNTFLVGLANSPLPAPSHVTCPLVKLWLGKPVAVGKLEPHAPSPRDFAARCSNFSDACVVLEIMPKPLWDAMQ
binding result [2]: binds
